These are literature values, as cited in publication PMC12153800.

In the data set the target is FZD10 (Homo sapiens) (UniProt Q9ULW2). Put plainly: NanoBiT/BRET.
Chain of FZD10 (Homo sapiens) (Q9ULW2 21-581): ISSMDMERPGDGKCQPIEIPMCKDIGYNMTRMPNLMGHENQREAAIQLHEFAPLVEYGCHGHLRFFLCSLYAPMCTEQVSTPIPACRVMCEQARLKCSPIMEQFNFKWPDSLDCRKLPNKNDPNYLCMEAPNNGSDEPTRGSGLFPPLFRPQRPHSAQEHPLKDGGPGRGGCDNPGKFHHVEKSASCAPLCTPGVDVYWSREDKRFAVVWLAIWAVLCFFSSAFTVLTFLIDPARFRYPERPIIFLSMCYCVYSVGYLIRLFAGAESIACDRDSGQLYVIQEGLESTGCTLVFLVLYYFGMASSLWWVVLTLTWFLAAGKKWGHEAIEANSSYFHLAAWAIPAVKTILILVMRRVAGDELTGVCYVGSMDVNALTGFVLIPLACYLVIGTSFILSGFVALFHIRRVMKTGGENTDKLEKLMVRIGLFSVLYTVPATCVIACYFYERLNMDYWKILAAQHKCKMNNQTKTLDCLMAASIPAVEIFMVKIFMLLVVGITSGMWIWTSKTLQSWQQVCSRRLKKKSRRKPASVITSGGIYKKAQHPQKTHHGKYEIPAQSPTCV

Chain of Wnt3a (P56704 19-352): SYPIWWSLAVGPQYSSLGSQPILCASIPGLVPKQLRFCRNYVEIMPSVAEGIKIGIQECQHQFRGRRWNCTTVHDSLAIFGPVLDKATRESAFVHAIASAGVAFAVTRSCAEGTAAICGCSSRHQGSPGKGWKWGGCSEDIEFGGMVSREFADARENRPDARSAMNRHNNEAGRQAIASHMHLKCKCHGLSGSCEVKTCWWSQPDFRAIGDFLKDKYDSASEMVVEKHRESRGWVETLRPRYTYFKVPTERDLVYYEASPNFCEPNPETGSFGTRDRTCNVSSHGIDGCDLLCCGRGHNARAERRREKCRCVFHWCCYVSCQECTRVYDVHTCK

For Wnt3a (from UniProt P56704), the dissociation constant Kd was 4.3 nM.
